Measurements reported in the Immune Epitope Database (IEDB).

What was measured:
[1] = target: HLA-A*31:01; test: IEDB peptide-MHC binding, purified MHC/competitive/fluorescence; filed as Kd, often an IC50 or EC50 that approximates it; ≥ and ≤ were set here for values at or beyond the usual limits of such assays
[2] = target: HLA-A*03:01; test: IEDB peptide-MHC binding, purified MHC/direct/fluorescence; filed as Kd, often an IC50 or EC50 that approximates it; ≥ and ≤ were set here for values at or beyond the usual limits of such assays
[3] = target: HLA-A*11:01; test: as above
[4] = target: HLA-B*07:02; test: IEDB peptide-MHC binding, purified MHC/competitive/fluorescence; filed as Kd, often an IC50 or EC50 that approximates it; ≥ and ≤ were set here for values at or beyond the usual limits of such assays
[5] = target: HLA-B*08:01; test: IEDB peptide-MHC binding, purified MHC/competitive/fluorescence; ≥ and ≤ were set here for values at or beyond the usual limits of such assays
[6] = target: HLA-A*02:12; test: IEDB peptide-MHC binding, purified MHC/direct/fluorescence; filed as Kd, often an IC50 or EC50 that approximates it; ≥ and ≤ were set here for values at or beyond the usual limits of such assays; conditions: source organism: Orthohantavirus sangassouense
[7] = target: HLA-A*02:19; test: as above; conditions: source organism: Orthohantavirus sangassouense
[8] = target: HLA-A*69:01; test: as above
[9] = target: HLA-A*02:01; test: as above
[10] = target: HLA-A*02:11; test: as above; conditions: source organism: Orthohantavirus sangassouense
[11] = target: HLA-C*12:03; test: as above; conditions: source organism: Orthohantavirus
[12] = target: HLA-B*57:01; test: as above; conditions: source organism: Giardia lamblia ATCC 50803
[13] = target: HLA-B*15:01; test: as above; conditions: source organism: Giardia lamblia ATCC 50803
[14] = target: HLA-A*01:01; test: as above; conditions: source organism: Giardia lamblia ATCC 50803
[15] = target: HLA-A*31:01; test: as above; conditions: source organism: Giardia lamblia ATCC 50803
[16] = target: HLA-B*15:17; test: as above; conditions: source organism: Giardia lamblia ATCC 50803
[17] = target: HLA-B*35:01; test: as above; conditions: source organism: Giardia lamblia ATCC 50803
[18] = target: HLA-B*40:01; test: as above; conditions: source organism: Giardia lamblia ATCC 50803
[19] = target: HLA-B*27:05; test: as above; conditions: source organism: Giardia lamblia ATCC 50803
[20] = target: HLA-A*26:01; test: as above; conditions: source organism: Giardia lamblia ATCC 50803
[21] = target: HLA-B*08:01; test: as above; conditions: source organism: Giardia lamblia ATCC 50803
[22] = target: HLA-B*07:02; test: as above; conditions: source organism: Giardia lamblia ATCC 50803
[23] = target: HLA-B*44:02; test: as above; conditions: source organism: Giardia lamblia ATCC 50803
[24] = target: HLA-B*58:01; test: as above; conditions: source organism: Giardia lamblia ATCC 50803
[25] = target: HLA-A*01:01; test: IEDB peptide-MHC binding, purified MHC/competitive/fluorescence; filed as Kd, often an IC50 or EC50 that approximates it; ≥ and ≤ were set here for values at or beyond the usual limits of such assays
[26] = source organism: Francisella tularensis subsp. holarctica LVS
[27] = source organism: Orthohantavirus hantanense
[28] = source organism: Mycobacterium tuberculosis
[29] = source organism: Giardia lamblia ATCC 50803
[30] = source organism: Listeria monocytogenes
[31] = source organism: West Nile virus

Sequence AIYESNIGY has a Kd ([1]; source organism: Francisella tularensis subsp. tularensis FSC198) of no less than 20 µM, a Kd [2, 26] of 0.0083 µM and a Kd [3, 26] of 0.0151 µM.

APSPYNSRF gave a Kd ([4]; source organism: Influenza A virus) of 0.0071 µM.

ERQLAKAII was tested, and the IC50 ([5]; source organism: Vaccinia virus Copenhagen) was no less than 111 µM.

FIYGYLEPV gave a Kd [6] of no more than 0.001 µM, a Kd [7] of 0.002 µM and a Kd [8, 27] of no more than 0.001 µM. It also gave a Kd [9, 27] of no more than 0.001 µM, a Kd [10] of no more than 0.001 µM and a Kd [11] of 0.012 µM.

In the case of GDIKASNIV, the IC50 ([5]; source organism: Vaccinia virus WR) is reported as no less than 298 µM.

With GTAPPPLTR the Kd ([1]; source organism: Mycobacterium tuberculosis variant bovis BCG str. Pasteur 1173P2) was 0.00377 µM, the Kd [2, 28] was 0.32 µM and the Kd [3, 28] was 0.0204 µM.

HSSVAGGLW gave a Kd [2, 29] of no less than 20 µM, a Kd [12] of 0.0535 µM and a Kd [13] of no less than 20 µM. The Kd [8, 29] was no less than 20 µM, the Kd [9, 29] was no less than 20 µM and the Kd [3, 29] was no less than 20 µM. The Kd [14] was 0.59 µM, the Kd [15] was no less than 20 µM and the Kd [16] was 0.0011 µM. For the same sequence, the Kd [17] was 0.278 µM, the Kd [18] was no less than 20 µM and the Kd [19] was no less than 20 µM. For the same sequence, the Kd [20] was no less than 20 µM, the Kd [21] was no less than 20 µM and the Kd [22] was no less than 20 µM. The Kd [23] was no less than 20 µM and the Kd [24] was 0.00374 µM.

ITDMRNGFN was tested, and the Kd ([25]; source organism: Escherichia coli O139:H28 str. E24377A) was no less than 20 µM.

LLAKSVFNSLY showed a Kd ([25]; source organism: Influenza A virus (A/X-31(H3N2))) of 0.093 µM.

LLARFGLEK gave a Kd ([1]; source organism: Listeria monocytogenes J0161) of 1.4 µM, a Kd [2, 30] of 0.0141 µM and a Kd [3, 30] of 0.0103 µM.

For LPFQNIHPITI, the Kd ([4]; source organism: Influenza A virus (A/duck/Bavaria/1/1977(H1N1))) was 0.0574 µM.

In the case of MVGVGSLVK, the Kd [1, 31] is reported as no less than 20 µM and the Kd [3, 31] is reported as 0.027 µM.

NPRMFLAM was tested, and the Kd ([4]; source organism: Influenza A virus (A/Fort Monmouth/1/1947-mouse adapted(H1N1))) was 0.372 µM.
